Measurements published in publication PMC10679814, “Yeast lunapark regulates the formation of trans-Sey1p complexes for homotypic ER membrane fusion” (iScience, 2023).
Each block holds one molecule with its values, some of them ahead of it.

Assays:
[1] = biological target: Sey1p-ΔTM (S. cerevisiae); assay: SEC; Superdex 200 (10/300), 20 mM HEPES-NaOH pH 7.4, 150 mM NaCl; Sey1p-ΔTM incubated at 30°C for 1 h with GMP-PNP, without or with the Lnp1p peptide
[2] = biological target: T1, His6-tagged Sey1p-(1-675), the N-terminal cytoplasmic region of Sey1p (S. cerevisiae, UniProt Q99287 1-675); assay: pull-down; 40 μg his6-tagged protein with 20 μM Lnp1p peptide in RB150 buffer, 0.4% Triton X-100, 20 mM imidazole, 4°C 2 h; Ni-NTA agarose 30 min; SDS-PAGE, Coomassie; details: both partners purified
T1 construct: in pET28a; source: E. coli Rosetta-2 DE3, purified (Ni-NTA)
T1 sequence (looked up): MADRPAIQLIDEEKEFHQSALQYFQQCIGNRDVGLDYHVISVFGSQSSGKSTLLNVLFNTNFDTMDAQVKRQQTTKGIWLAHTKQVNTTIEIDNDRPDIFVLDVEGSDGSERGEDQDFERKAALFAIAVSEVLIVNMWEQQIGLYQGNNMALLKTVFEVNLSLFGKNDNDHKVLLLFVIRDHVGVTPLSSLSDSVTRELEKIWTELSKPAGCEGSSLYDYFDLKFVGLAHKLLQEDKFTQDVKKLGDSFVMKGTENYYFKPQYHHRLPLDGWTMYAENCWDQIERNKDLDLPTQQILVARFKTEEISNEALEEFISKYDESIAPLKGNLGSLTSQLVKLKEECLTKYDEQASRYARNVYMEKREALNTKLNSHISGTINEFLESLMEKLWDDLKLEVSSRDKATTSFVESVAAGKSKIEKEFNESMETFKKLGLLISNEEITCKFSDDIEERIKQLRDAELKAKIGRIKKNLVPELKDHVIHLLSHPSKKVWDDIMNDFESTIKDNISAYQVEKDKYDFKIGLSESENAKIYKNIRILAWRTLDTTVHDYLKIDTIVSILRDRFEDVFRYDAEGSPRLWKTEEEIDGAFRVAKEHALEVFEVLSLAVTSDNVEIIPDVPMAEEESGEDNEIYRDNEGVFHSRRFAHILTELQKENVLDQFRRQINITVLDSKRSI

[3] = biological target: T2, His6-tagged Sey1p-(1-283) (S. cerevisiae, UniProt Q99287 1-283); assay: as above; details: both partners purified
T2 construct: Sey1p, S. cerevisiae, amino acids 1-283 (GTPase domain); in pET28a; also called GTPase domain of Sey1p; source: E. coli Rosetta-2 DE3, purified (Ni-NTA)
T2 sequence (looked up): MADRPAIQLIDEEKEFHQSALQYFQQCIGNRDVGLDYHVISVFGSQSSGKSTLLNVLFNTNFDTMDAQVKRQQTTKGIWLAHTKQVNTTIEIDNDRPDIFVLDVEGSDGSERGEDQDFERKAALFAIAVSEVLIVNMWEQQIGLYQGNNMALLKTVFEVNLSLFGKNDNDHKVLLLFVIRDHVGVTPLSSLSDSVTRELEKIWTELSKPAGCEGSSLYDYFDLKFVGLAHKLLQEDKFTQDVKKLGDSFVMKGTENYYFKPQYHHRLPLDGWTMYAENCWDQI

stoichiometry N [1]: 2
Molecule: Sey1p-ΔTM (domain or fragment)

binding result [2]: binds | binding result [3]: binds
B1: Lnp1p peptide, a synthetic peptide with the N-terminal region (amino acids 1-52) of Lnp1p (peptide, UniProt P38878 1-52, looked up)
peptide: MFSALGKWVRGSRNDKDFVTKYTADLSQITSQIHQLDVALKKSQSILSQWQS
notes: Lnp1p (yeast lunapark), S. cerevisiae, amino acids 1-52; also called LNP1 peptide; source: synthetic peptide (custom, Anygen)
